In the RNAGym collection of RNA variant scans (doi:10.7554/elife.80360) one finds self-cleavage data, which are given here for 167 variants.

Sequences and labels used below:
B1: Hairpin Ribozyme (parent)
chain: GUCCUCUUUCACGUGCGCGUGAAAGAGAGAAGUGAACCAGAGAAACACACGUUGUGGUAUAUUACCUGGUA

In the data set the parent is B1. The experiment in a line: self-cleavage, relative activity (ratio to wild type); higher = more cleavage; co-transcriptional.
C37G A71C: the self-cleavage stood at 0.784. With C37G A71U the figure was 0.216; with C37U G42A, 0.198. With C37U G42C the figure was 0.226. The value for C37A A49C was 0.0162; that for C37A A49G was 0.325; that for C37U U60A was 0.352.

On to C37U U60G, for which the self-cleavage was found to be 0.451. Take C37U U60C: the self-cleavage was determined as 0.645.

C37G G51A: the self-cleavage came to 0.647. The value for C37G C48A was 0.192; that for C38A A44C was 0.108; that for C38G A64U was 0.112. In the case of C37G U60C, the self-cleavage is 0.331.

With C37A U58A, the self-cleavage turned out to be 0.235. The value for C37A G57C was 0.158; that for C37U C66U was 0.264; that for C37A G68C was 0.254.

Consider C37G G56C, for which the self-cleavage turned out to be 0.176. With A36U U52G the figure was 0.466; with A36U U52A, 0.303. With A36U U52C the figure was 0.765; with C37U U55A, 0.143. Turning to C37U U55G, the self-cleavage was 0.159.

On to C37U U55C, for which the self-cleavage stood at 0.172.

On to C37G A39G, for which the self-cleavage is 0.328. The value for C37G A39U was 0.0635; that for C37G U52A was 0.358; that for C37G U52C was 0.242. With C37U C65A, the self-cleavage turned out to be 0.533. The value for A36U U67C was 0.133; that for C37A U52C was 0.266. With C38A C46G the figure was 0.133; with C37A A45G, 0.0956; with C38A A59C, 0.103.

C37U U70C: the self-cleavage was determined as 0.603.

Consider C37U U70A, for which the self-cleavage is 0.544. With A36U C50G the figure was 0.0987; with A36U C50U, 0.125; with C37A C50U, 0.138. With C37G U70A the figure was 0.488; with C37U C50G, 0.226; with C37A C66G, 0.105. The value for C37A C66U was 0.179; that for C37A C66A was 0.0612. Regarding C37U G57A, the self-cleavage was determined as 0.169. In the case of C38G A47U, the self-cleavage amounted to 0.171.

As to C37U U62G, the self-cleavage was determined as 0.166. With C37U U62A the figure was 0.165; with C38A C48U, 0.135. With C37G G42C the figure was 0.152; with C38A A71U, 0.129; with C37A G42C, 0.16. With C38A U62A the figure was 0.218; with C37G A49G, 0.18; with C37G A45C, 0.112. Regarding C37A G56A, the self-cleavage was 0.156. The value for C37A G56U was 0.189; that for C37A A41G was 0.339; that for C38G A43U was 0.154. With C38A C65U, the self-cleavage turned out to be 0.204. The value for C38A C65G was 0.104; that for C38A U58C was 0.181; that for C38G C46A was 0.148.

C37A G51C: the self-cleavage was found to be 0.239. With A36U A47G the figure was 0.172; with A36U A47U, 0.141; with C38A U60A, 0.0853. As to C37U U58C, the self-cleavage worked out at 0.743.

Take C37G U62G: the self-cleavage was found to be 0.138.

For C38G A49C, the self-cleavage was 0.106. The value for C38G A49G was 0.0605. With C37G A61C the figure was 0.112; with A36U U60A, 0.487; with C37A A71C, 0.526. C37A A71U: the self-cleavage was 0.284. With C37A U60A the figure was 0.303. Take C37U A39G: the self-cleavage came to 0.269. With C37U A45U the figure was 0.11. The value for C37U A45C was 0.109. On to C37A A61G, for which the self-cleavage worked out at 0.207. The value for C37G G68C was 0.131.

Take C37U A43U: the self-cleavage was determined as 0.0491. The value for C37U A43C was 0.126; that for A36U U55A was 0.161; that for A36U A59C was 0.228.

Regarding A36U C38U, the self-cleavage was 0.112. With A36U C38A the figure was 0.0871; with C37A A47G, 0.0917; with C37G A47C, 0.14. Take C37U A71G: the self-cleavage came out at 0.779. The value for A36U U53A was 0.464; that for C38G A45G was 0.259; that for C38G A45C was 0.0432. With A36U G40A the figure was 0.296; with C38A G40A, 0.139; with C37A G69U, 0.777. With A36U C65U the figure was 0.113; with C38A G56U, 0.179.

For the variant C37G A44C, the self-cleavage was 0.16. On to A36U C66A, for which the self-cleavage came out at 0.114. The value for C37U C48A was 0.12; that for A36U G42U was 0.173. As to C37A U70G, the self-cleavage was found to be 0.446. On to C37U A49G, for which the self-cleavage was 0.508. Consider C37U A49C, for which the self-cleavage came to 0.0924. The value for C37G A41U was 0.541; that for C37A U55A was 0.121; that for C37A U55G was 0.0701. For the variant C37A U67A, the self-cleavage amounted to 0.197. With C37A U67G the figure was 0.202. The value for C37G G40U was 0.186; that for A36U C46A was 0.0951; that for A36U C46G was 0.0439. The value for C37G U67G was 0.132.

Regarding C37G U67C, the self-cleavage amounted to 0.167. The value for C37U A41G was 0.994; that for C38A A43U was 0.152. With C37G U63C the figure was 0.154; with C38G A41U, 0.358. The value for A36U A71C was 0.959. Turning to C37A U63G, the self-cleavage was determined as 0.131. The value for A36U U58A was 0.386; that for C37A U53G was 0.23. The value for C38A G51U was 0.195; that for A36U G56A was 0.0631; that for A36U G56C was 0.131. The value for C38A G69U was 0.0684. In the case of C37U G54C, the self-cleavage was found to be 0.338.

For the variant C37A A64C, the self-cleavage stood at 0.144. With C37G A43G the figure was 0.261; with C37G A43U, 0.177; with C37G A43C, 0.108.

Consider C37G G54U, for which the self-cleavage was found to be 0.255. With C37U G56U the figure was 0.13; with C37U G56C, 0.198.

With C37G C50G, the self-cleavage stood at 0.0454. With C37U G69U the figure was 0.438. Consider C37U G69A, for which the self-cleavage was determined as 0.46. Turning to C37G G57A, the self-cleavage amounted to 0.13. On to C37G G57U, for which the self-cleavage is 0.141.

Consider A36U A49C, for which the self-cleavage worked out at 0.214. With C37A A39U the figure was 0.0999. Turning to C37U U67A, the self-cleavage was 0.175. For C37G C66G, the self-cleavage amounted to 0.154. Turning to A36U C48G, the self-cleavage was determined as 0.182. In the case of A36U A45U, the self-cleavage amounted to 0.057. On to C38G A44C, for which the self-cleavage stood at 0.17. With C38G A44G the figure was 0.335. With C37A U62A the figure was 0.133; with A36U G51A, 0.508. The value for C38A U63A was 0.0537; that for C38A U63G was 0.165.

In the case of C37G G69C, the self-cleavage worked out at 0.984.

As for C37G G69A, the self-cleavage stood at 0.346. With C38A G68C the figure was 0.137; with C38A G68U, 0.735; with C37U, 0.614. C37G: the self-cleavage came out at 0.363. As to C37A, the self-cleavage is 0.345.

With C38A C50G, the self-cleavage was 0.089. With C38A A61U the figure was 0.064; with C38G A59U, 0.125.

With C38G A59G, the self-cleavage was found to be 0.162.

C37G A59U: the self-cleavage was 0.0586. With C37U C46U the figure was 0.198. With C37U A44U the figure was 0.173.
